In assay [1] the target is T1, corin WT (Homo sapiens, UniProt Q9Y5Q5).
T1 construct: expressed in transfected cells; host or cells: HEK293
T1 sequence (Q9Y5Q5 1-1042): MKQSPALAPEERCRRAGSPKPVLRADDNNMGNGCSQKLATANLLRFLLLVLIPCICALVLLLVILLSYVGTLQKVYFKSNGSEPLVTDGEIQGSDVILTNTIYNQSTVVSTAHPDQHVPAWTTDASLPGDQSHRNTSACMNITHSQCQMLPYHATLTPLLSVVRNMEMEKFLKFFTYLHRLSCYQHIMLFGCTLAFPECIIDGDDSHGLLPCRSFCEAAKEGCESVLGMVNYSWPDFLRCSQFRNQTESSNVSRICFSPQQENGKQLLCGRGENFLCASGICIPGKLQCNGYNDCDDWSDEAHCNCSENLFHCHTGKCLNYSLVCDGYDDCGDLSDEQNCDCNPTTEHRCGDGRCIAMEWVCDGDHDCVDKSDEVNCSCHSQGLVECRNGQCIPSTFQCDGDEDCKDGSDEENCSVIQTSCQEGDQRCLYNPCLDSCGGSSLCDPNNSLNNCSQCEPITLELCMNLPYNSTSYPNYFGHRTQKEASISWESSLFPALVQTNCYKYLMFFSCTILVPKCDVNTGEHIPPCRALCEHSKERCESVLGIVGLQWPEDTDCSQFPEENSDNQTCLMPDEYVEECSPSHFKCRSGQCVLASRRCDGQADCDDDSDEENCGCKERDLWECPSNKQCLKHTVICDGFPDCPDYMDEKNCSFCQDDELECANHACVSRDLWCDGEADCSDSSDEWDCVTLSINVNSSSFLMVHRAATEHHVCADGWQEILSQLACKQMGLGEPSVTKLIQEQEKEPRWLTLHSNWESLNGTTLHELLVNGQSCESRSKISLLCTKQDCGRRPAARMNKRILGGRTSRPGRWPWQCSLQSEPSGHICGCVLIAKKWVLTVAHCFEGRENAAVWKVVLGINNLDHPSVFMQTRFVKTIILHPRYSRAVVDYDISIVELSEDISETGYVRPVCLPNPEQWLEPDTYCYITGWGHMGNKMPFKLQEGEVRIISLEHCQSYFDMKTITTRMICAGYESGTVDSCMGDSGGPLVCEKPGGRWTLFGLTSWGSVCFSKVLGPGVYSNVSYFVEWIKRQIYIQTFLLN
The assay can be described thus: PCSK6-mediated corin activation in HEK293 cells, corin WT. The assay is classed as cell-based. As to conditions: Western. An excerpt:
Plasmids expressing human corin WT and mutants R801A, S985A, T555I, Q568P, T555I/Q568P, K317E, S472G and R539C were reported previously. Dong, N. et al., J Biol Chem 289, 17909-17916 (2014); Knappe et al., J Biol Chem 278, 52363-52370 (2003); Wu et al., J Biol Chem 277, 16900-16905. (2002). Plasmids expressing human PCSK1-9 were made by cloning respective cDNAs into pcNDA3.1 vector. Recombinant corin and PCSK proteins encoded by these plasmids contained a C-terminal V5 or flag tag for protein detection in Western blotting.
HEK293 and HL-1 cells were transfected with corin or PCSK6 expression plasmids. After 48-72 h, cells were lysed in a buffer containing 25 mM Tris-HCl, pH 7.4, 150 mM NaCl, 1 mM EDTA, 1% (v/v) NP-40, and 1% (v/v) protease inhibitor cocktail. Recombinant corin and PCSK6 proteins were immunoprecipitated with an anti-V5 or anti-flag antibody. Western blotting was carried out to analyze corin expression and activation or PCSK6 expression with or without reducing agents. Percentage of corin activation (corin-p vs. corin fragments) was quantified by densitometric analysis of Western blots.

The target of assay [2] is T1, corin WT. Nature of the assay: Corin activation by purified PCSK6 on HEK293 cells, corin WT. The format is cell-based. As to conditions: increasing concentrations, 2 h, 37° C. As for the experimental part: HEK293 and HL-1 cells expressing recombinant corin in 6-well plates were incubated with 1.5 mL (200 μM) of membrane impermeable Sulfo-NHS-SS-biotin for 5 min. Qi et al., J Biol Chem 286, 20963-20969 (2011). A quenching solution was added to the wells and incubated on ice for 10 min. Cells were lysed in the lysis buffer. Labeled proteins were isolated with avidin-coupled agarose beads and analyzed by Western blotting.
Stable HEK293 cells were established to produce human PCSK6 with a C-terminal flag tag. The cells were cultured in DMEM with 10% FBS and 600 μg/mL G418. At confluency, the cells were washed with PBS and cultured with Reduced-Serum Medium. After 72 h, the conditioned medium was collected, centrifuged (10 min at 17,000 g) to remove cell debris, and concentrated to ⅕ of the original volume using a Centrifugal filter unit at 4° C. The concentrated medium was incubated with anti-flag M2 affinity bead slurry in a volume ratio of 25:1 on a rotator at 4° C. for 2 h. […] After centrifugation, the supernatant containing purified PCSK6 was collected, and analyzed by SDS-PAGE followed by silver staining and Western blotting.
Stable HEK293 cells expressing human corin were cultured in 6-well plates in DMEM with 10% FBS and 2 μM monensin. […] After 2 h, cell surface proteins were labeled and corin protein was analyzed by Western blotting.

Entries after “also recorded” stand apart in the source; their conditions may differ.

B1: proprotein convertase subtilisin/kexin-6 (protein, listed as Homo sapiens)
chain: MPPRAPPAPGPRPPPRAAAATDTAAGAGGAGGAGGAGGPGFRPLAPRPWRWLLLLALPAACSAPPPRPVYTNHWAVQVLGGPAEADRVAAAHGYLNLGQIGNLEDYYHFYHSKTFKRSTLSSRGPHTFLRMDPQVKWLQQQEVKRRVKRQVRSDPQALYFNDPIWSNMWYLHCGDKNSRCRSEMNVQAAWKRGYTGKNVVVTILDDGIERNHPDLAPNYDSYASYDVNGNDYDPSPRYDASNENKHGTRCAGEVAASANNSYCIVGIAYNAKIGGIRMLDGDVTDVVEAKSLGIRPNYIDIYSASWGPDDDGKTVDGPGRLAKQAFEYGIKKGRQGLGSIFVWASGNGGREGDYCSCDGYTNSIYTISVSSATENGYKPWYLEECASTLATTYSSGAFYERKIVTTDLRQRCTDGHTGTSVSAPMVAGIIALALEANSQLTWRDVQHLLVKTSRPAHLKASDWKVNGAGHKVSHFYGFGLVDAEALVVEAKKWTAVPSQHMCVAASDKRPRSIPLVQVLRTTALTSACAEHSDQRVVYLEHVVVRTSISHPRRGDLQIYLVSPSGTKSQLLAKRLLDLSNEGFTNWEFMTVHCWGEKAEGQWTLEIQDLPSQVRNPEKQGKLKEWSLILYGTAEHPYHTFSAHQSRSRMLELSAPELEPPKAALSPSQVEVPEDEEDYTAQSTPGSANILQTSVCHPECGDKGCDGPNADQCLNCVHFSLGSVKTSRKCVSVCPLGYFGDTAARRCRRCHKGCETCSSRAATQCLSCRRGFYHHQEMNTCVTLCPAGFYADESQKNCLKCHPSCKKCVDEPEKCTVCKEGFSLARGSCIPDCEPGTYFDSELIRCGECHHTCGTCVGPGREECIHCAKNFHFHDWKCVPACGEGFYPEEMPGLPHKVCRRCDENCLSCAGSSRNCSRCKTGFTQLGTSCITNHTCSNADETFCEMVKSNRLCERKLFIQFCCRTCLLAG
modifications: C-terminal FLAG tag
For B1, the PCSK6-mediated activation cleavage result with corin WT [1] is reported as “detected”. Also, the “activation of corin on the cell surface by purified recombinant PCSK6” value in the assay with corin WT [2] is reported as “activated corin on the surface of HEK293 cells in a dose-depending manner; also recorded: activated corin WT”.

(Values after patent US10314894B2, “Treatment of cardio-renal disease using PCSK6” (THE CLEVELAND CLINIC FOUNDATION, priority 2014, dated 2019).)
